In test [1] the target is TAT-031 as present on the surface of human tumor cell lines (PC3, H1299, HL-60) (human) (UniProt P08195). The experiment in a line: flow cytometry on PC-3 human tumor cells. A general note: A flow cytometer gives signals particle by particle.
Test [2] shares this target. Description: flow cytometry on H1299 human tumor cells.
For test [3] the target is unchanged. The experiment in a line: flow cytometry on HL-60 human tumor cells.
Test [4] addresses TAT-031 (full-length clone expressed from phCMV1-TAT-031 on stably transfected cells) (human) (UniProt P08195). Description: flow cytometry on BaF3 cells stably transfected with TAT-031 (SLC3A2).

Our source for the relative geometric mean fluorescence (relative geometric mean fluorescence) values is patent US20070180545A1.

Several values for one entry are separate records, joined by “and”; a condition that tells them apart may be missing. Equal values may be shown once.

As to “Mouse monoclonal antibody 44D7 (Abcam, Cat#AB23495)”, the relative geometric mean fluorescence (relative geometric mean fluorescence) is 153 and 98.6 and 86 in test [1]; 527 and 419 and 389 in test [2]; 118 and 257 and 205 in test [3]; 165 and 102 in test [4].
